In patent publication US20240218070A1 (MERUS N V, published 2024):

Key:
[1] = target: T1, human TGF-βRII expressed on cells (human, UniProt P37173 23-567); assay: cell-based or functional assay
[2] = target: T1, human TGF-βRII expressed on cells; assay: cell-based or functional assay; remark: listed apart in the source

T1 sequence (P37173 23-567 limits assumed, form in doubt): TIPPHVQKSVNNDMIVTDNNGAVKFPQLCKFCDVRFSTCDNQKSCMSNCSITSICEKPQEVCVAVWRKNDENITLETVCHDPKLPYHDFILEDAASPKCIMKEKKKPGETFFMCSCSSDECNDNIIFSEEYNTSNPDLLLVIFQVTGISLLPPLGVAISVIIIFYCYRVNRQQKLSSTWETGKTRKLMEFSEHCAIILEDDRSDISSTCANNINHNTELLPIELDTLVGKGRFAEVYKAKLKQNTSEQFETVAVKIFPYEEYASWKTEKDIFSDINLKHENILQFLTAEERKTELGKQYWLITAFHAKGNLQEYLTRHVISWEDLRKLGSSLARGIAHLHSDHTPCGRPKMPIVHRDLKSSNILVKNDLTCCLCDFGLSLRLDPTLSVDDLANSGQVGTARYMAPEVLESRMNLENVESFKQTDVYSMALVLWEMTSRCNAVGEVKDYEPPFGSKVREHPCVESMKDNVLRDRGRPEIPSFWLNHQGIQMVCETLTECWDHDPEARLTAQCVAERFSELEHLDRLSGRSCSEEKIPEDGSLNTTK

B1: Analog reference TGF-βRII antibody TGF1 (antibody, human IgG1, kappa, V domains shown)
VH: QLQVQESGPGLVKPSETLSLTCTVSGGSISNSYFSWGWIRQPPGKGLEWIGSFYYGEKTYYNPSLKSRATISIDTSKSQFSLKLSSVTAADTAVYYCPRGPTMIRGVIDSWGQGTLVTVSS
VL: EIVLTQSPATLSLSPGERATLSCRASQSVRSYLAWYQQKPGQAPRLLIYDASNRATGIPARFSGSGSGTDFTLTISSLEPEDFAVYYCQQRSNWPPTFGQGTKVEIKR
In the case of B1, the “Primary CAF IL-11 IC50, BLDA” value [1] is reported as 1.04 µg/mL, the “Primary CAF IL-11 IC50, COAD(1)” value [1] is reported as 1.22 µg/mL and the “Primary CAF IL-11 IC50, COAD(2)” value [1] is reported as 0.313 µg/mL. For the same binder, the “Primary CAF IL-11 IC50, GBM” value [1] was 0.264 µg/mL, the “Primary CAF IL-11 IC50, HNSC” value [1] was 20.2 µg/mL and the “Primary CAF IL-11 IC50, LUAD” value [1] was 0.765 µg/mL. The “Primary CAF IL-11 IC50, LUSC” value [1] was 0.085 µg/mL, the “Primary CAF IL-11 IC50, MEL” value [1] was 0.588 µg/mL and the “Primary CAF IL-11 IC50, OV” value [1] was 0.191 µg/mL. For the same binder, the “Primary CAF IL-11 IC50, PAAD” value [1] was 0.38 µg/mL, the “Primary CAF pSMAD IC50, BLDA” value [1] was 0.087 ug/ml and the “Primary CAF pSMAD IC50, COAD(1)” value [1] was 0.081 ug/ml. The “Primary CAF pSMAD IC50, COAD(2)” value [1] was 0.023 ug/ml, the “Primary CAF pSMAD IC50, GBM” value [1] was 0.048 ug/ml and the “Primary CAF pSMAD IC50, HNSC” value [1] was 0.714 ug/ml. For the same binder, the “Primary CAF pSMAD IC50, LUAD” value [1] was 0.078 ug/ml, the “Primary CAF pSMAD IC50, LUSC” value [1] was 0.125 ug/ml and the “Primary CAF pSMAD IC50, MEL” value [1] was 0.117 ug/ml. The “Primary CAF pSMAD IC50, OV” value [1] was 0.188 ug/ml, the “Primary CAF pSMAD IC50, PAAD” value [1] was 0.126 ug/ml and the “IL-11 IC50, TGF-β1-stimulated primary colon CAFs” value [2] was 0.0526 µg/mL. The “pSMAD2 IC50, TGF-β1-stimulated primary colon CAFs” value [2] was 0.00929 ug/ml.
